For test [1], the target named is recombinant soluble human IL-6 receptor (SR344) (human) (UniProt P08887). Nature of the test: SPR (Biacore T100), antibody captured on anti-IgG (γ-chain specific) F(ab')2, SR344 as analyte, pH 7.4, 37° C. Background: In SPR one partner is held on a chip, and binding of the other changes the refractive index at the surface.
In test [2] the target is soluble human FcRn (complex of FcRn extracellular domain and β2-microglobulin) (human) (UniProt P55899). Nature of the test: SPR (Biacore 3000), method of Example 6: captured antibody, human FcRn as analyte, pH 6.0, steady state affinity.
soluble human FcRn (complex of FcRn extracellular domain and β2-microglobulin) (human), sequence (P55899 24-290 limits assumed, chain 1 of 2): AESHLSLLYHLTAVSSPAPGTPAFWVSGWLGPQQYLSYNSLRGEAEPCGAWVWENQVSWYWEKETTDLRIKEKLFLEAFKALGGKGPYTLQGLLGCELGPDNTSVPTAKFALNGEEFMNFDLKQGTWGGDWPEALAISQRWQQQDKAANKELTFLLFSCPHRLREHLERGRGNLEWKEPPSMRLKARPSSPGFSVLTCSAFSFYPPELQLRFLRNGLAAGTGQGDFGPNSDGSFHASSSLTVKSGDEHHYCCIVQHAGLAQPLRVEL
soluble human FcRn (complex of FcRn extracellular domain and β2-microglobulin) (human), sequence (b2m, as listed by the source limits assumed, chain 2 of 2): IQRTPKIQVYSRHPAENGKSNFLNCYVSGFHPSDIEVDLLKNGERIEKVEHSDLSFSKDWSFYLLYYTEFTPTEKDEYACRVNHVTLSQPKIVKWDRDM
For test [3] the target is unchanged. Nature of the test: SPR (Biacore 3000), antibody captured on Protein L or anti-human kappa antibody, human FcRn as analyte, pH 6.0, steady state affinity.
Test [4] shares this target. The test is described as above. The source holds these as a separate data set.

From patent US20100298542A1 come the findings set out here.

recombinant soluble human IL-6 receptor (SR344) (human), sequence (P08887 20-344): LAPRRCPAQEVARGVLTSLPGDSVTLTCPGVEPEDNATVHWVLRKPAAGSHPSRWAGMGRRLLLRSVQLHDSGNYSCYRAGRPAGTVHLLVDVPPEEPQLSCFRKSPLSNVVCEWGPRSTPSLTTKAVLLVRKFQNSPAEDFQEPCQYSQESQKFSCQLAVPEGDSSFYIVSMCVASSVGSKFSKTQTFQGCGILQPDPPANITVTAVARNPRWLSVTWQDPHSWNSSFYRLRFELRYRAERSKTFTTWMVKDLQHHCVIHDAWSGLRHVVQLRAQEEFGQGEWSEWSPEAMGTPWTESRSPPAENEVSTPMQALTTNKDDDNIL

For “WT-IgG1 (humanized PM-1 antibody, TOCILIZUMAB; humanized anti-human IL-6 receptor IgG1 antibody)”, the equilibrium dissociation constant (Kd) (as a rule, the free concentration of one partner at which half of the binding sites on the other are occupied at equilibrium, for simple one-to-one binding) was 0.0027 µM in test [1], 1.42 µM in test [2], 2.07 µM in test [3] and 1.62 µM in test [4]. The koff (as a rule, a measure of how fast the partners let go of each other) in test [1] is 0.0011 s⁻¹. Moreover, in test [1], the kon (usually a measure of how fast the partners come together) was 400000 M⁻¹ s⁻¹.
